# Source: PMC3733117
# Target: DNA polymerase beta I260Q (rat, UniProt P06766 1-335, I260Q)
# Experiment: X-ray crystallography
binder,measurement,value
cocrystallization primer/template (dsDNA) DNA 1: ATGTGAG DNA 2: CAAACTCACAT,binding result,binds
